From patent US20250115680A1 (PROFOUNDBIO US, published 2025)
Values belong to the binder of their own block, whether it stands above or below them.

Experiments:
[1] = target: T1, mouse PTK-7 recombinant protein (mouse, UniProt Q8BKG3 23-696, limits assumed); test: ELISA, plate-coated mouse PTK7 recombinant protein
T1 construct: also called mouse PTK7 protein
T1 sequence (looked up): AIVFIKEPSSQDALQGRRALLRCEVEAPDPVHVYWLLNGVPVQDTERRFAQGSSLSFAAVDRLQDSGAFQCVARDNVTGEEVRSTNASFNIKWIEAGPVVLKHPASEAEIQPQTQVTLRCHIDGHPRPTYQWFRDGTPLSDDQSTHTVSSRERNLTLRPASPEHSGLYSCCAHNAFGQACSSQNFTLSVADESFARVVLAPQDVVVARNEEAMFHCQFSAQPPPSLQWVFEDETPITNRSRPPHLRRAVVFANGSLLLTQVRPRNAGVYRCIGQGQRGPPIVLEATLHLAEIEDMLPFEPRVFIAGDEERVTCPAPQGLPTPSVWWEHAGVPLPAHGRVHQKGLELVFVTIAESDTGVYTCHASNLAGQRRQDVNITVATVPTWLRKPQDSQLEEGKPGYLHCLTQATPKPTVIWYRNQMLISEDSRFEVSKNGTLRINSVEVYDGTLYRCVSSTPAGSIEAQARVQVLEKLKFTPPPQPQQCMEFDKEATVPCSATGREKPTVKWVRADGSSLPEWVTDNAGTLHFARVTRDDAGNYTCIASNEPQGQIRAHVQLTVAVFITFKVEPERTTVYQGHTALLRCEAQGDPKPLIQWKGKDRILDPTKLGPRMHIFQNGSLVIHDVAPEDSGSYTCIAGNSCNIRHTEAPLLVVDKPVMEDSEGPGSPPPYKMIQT
Protocol: (§1) Binding specificity property was tested by ELISA according to a standard protocol. Specifically, 96-well micro-plates were coated with 2 μg/mL human, cynomolgus, mouse, and rat PTK-7 recombinant protein in PBS 100 μL per well, incubated overnight at 4° C. Plates were washed twice by TBS+0.5% Tween20. 200 μL of blocking buffer (2% BSA in PBS) was added to each well and incubated at 37° C. for 2 hours. Plates were washed using the buffer mentioned above. Serially diluted antibodies were added to the ELISA plate with 100 μL per well and incubated for 1 hour at room temperature. Then plates were washed for 3 times. After washing, HRP conjugated anti-human Fc antibody solution (abcam, ab98624, diluted with blocking buffer) was added to the plate with 100 μl per well. The plates were incubated at room temperature for 1 hour and then washed for 3 times. Then TMB solution was added to plates with 100 μl per well, placed at room temperature for 5-15 mins, then the stop solution (2M H₂SO₄) was added with 50 μl per well. Finally, the result was measured by absorbance at A₄₅₀ and A₆₃₀.

[2] = target: T2, human PTK-7 recombinant protein (human, UniProt Q13308 31-704, limits assumed); test: ELISA, plate coated with 2 ug/mL human PTK-7 recombinant protein, HRP anti-human Fc detection, OD450
T2 construct: also called human PTK7 protein
T2 sequence (looked up): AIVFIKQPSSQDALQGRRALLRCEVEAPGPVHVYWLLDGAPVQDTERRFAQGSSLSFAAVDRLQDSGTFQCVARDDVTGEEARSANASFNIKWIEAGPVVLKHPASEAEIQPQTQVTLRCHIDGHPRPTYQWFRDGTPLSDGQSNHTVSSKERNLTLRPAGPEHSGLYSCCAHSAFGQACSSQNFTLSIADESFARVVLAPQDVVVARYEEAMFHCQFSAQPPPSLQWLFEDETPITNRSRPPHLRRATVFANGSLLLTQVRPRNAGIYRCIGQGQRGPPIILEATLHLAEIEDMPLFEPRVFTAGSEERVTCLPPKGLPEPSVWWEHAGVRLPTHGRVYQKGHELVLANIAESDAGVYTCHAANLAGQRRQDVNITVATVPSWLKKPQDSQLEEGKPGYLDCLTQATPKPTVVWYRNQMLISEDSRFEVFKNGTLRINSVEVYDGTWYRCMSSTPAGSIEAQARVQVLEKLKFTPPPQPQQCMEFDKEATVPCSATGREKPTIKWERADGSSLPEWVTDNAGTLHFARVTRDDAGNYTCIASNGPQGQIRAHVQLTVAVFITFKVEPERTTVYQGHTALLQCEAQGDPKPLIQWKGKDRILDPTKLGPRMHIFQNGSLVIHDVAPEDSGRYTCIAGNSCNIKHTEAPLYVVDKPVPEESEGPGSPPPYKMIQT
Protocol: as §1

[3] = target: T3, cynomolgus PTK-7 recombinant protein (cynomolgus monkey, UniProt A0A2K5VNI5 39-712); test: ELISA, plate-coated cynomolgus PTK7 protein, anti-human Fc-HRP detection
T3 construct: also called cynomolgus monkey PTK7 protein; cyano PTK7
T3 sequence: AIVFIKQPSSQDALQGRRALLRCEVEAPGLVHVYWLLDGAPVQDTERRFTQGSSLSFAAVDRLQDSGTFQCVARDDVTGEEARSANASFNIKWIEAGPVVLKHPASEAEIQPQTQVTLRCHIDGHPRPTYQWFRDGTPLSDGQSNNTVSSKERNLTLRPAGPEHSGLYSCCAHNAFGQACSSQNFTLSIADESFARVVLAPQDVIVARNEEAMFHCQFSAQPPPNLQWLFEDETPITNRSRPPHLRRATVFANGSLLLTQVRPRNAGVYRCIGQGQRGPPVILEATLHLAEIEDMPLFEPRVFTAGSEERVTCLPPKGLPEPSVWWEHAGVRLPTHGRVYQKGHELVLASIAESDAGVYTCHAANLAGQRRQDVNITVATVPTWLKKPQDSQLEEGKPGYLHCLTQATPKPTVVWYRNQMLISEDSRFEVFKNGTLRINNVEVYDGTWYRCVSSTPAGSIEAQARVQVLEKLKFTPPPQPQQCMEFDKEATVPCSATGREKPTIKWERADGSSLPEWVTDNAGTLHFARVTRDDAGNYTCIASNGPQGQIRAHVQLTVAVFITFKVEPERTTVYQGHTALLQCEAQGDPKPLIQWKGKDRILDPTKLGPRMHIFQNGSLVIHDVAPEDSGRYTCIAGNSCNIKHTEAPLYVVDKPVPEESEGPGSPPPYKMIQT
Protocol: as §1

[4] = target: T4, cynomolgus PTK7 extra-cellular domain (ECD) linked to His tag (cynomolgus monkey, UniProt A0A2K5VNI5 39-712); test: BLI (Octet RED), antibody on anti-human IgG Fc tips, PTK7 ECD-His 100 to 1.56 nM in solution, 1:1 global fit
T4 construct: extracellular domain; also called cPTK7-his; cynomolgus monkey PTK7-his protein; not shown: His tag
T4 sequence: T3 sequence
Protocol: Recombinant proteins consisting of the PTK7 extra-cellular domain (ECD) linked to His tag were purchased from ACRO biosystems. […] Binding assays using varying concentrations from 100 nM down to 1.56 nM of recombinant proteins (human, cynomolgus) in solution were performed using Octet RED (ForteBio). Association time was set at 180 seconds and dissociation time was set at 300 seconds. Binding affinity was calculated using ForteBio Data Acquisition 6.3 software (ForteBio). Affinity was derived by fitting the kinetic data to a 1:1 Langmuir binding model utilizing global fitting algorithms.

- binding result [1]: no binding
- EC50 [2]: 31.7 pM
- EC50 [3]: 2610 pM
B1: humanized antibody 2C8 (antibody, V domains shown)
VH: QIQLVQSGAEVKKPGASVKVSCKASGYTFTTYGMSWVRQAPGQGLEWMGWINTHSGVPTYVDEFKGRVTMTLDTSTSTAYMELSSLRSEDTAVYYCARSPFDYGSRGAWFVYWGQGTTVTVSS
VL: DVVMTQSPDSLAVSLGERATINCRSSQSIVHNSGDTYLEWYQQKPGQPPKLLIYKVSNRFPGVPDRFSGSGSGTDFTLTISSLQAEDLAVYYCFQGSHVPWTFGGGTKVEIK
notes: Only variable regions are tied to 2C8 by name; It was detected with anti-human Fc

- EC50 [2]: 26.7 pM
- EC50 [3]: 1660 pM
- Kd [4]: 90.4 pM
- koff [4]: 2.02e-05 s⁻¹
- kon [4]: 224000 M⁻¹ s⁻¹
B2: humanized antibody 2C5 (antibody, V domains shown)
VH: QVQLVQSGAEVKKPGASVKVSCKASGYTFTDYYINWVRQAPGQGLEWMGDINPYSGGPVYNQKFMARVTMTVDKSINTAYMELSRLRSDDTAVYYCARGDYYGSNYNYWGQGTLVTVSS
VL: EIVLTQSPATLSVSPGERATLSCRASQNIGTSIHWYQQKPGQAPRLLIKFASESISGIPARFSGSGSGTEFTLTISSLQSEDIAVYYCQQSNNWPYTFGQGTKLEIK
notes: Only variable regions are tied to 2C5; It was detected with anti-human Fc, so it has a human Fc

- binding result [1]: no binding
- EC50 [2]: 22.1 pM
- EC50 [3]: 1140 pM
- Kd [4]: < 1 pM
- koff [4]: < 1e-07 s⁻¹
- kon [4]: 54100 M⁻¹ s⁻¹
B3: humanized antibody 13C4 (antibody, V domains shown)
VH: QVQLVESGGGLVKPGGSLRLSCAASGFAFSTYDMFWIRQAPGKGLEWVSTISSGGGYTYYPGSVKGRFTISRDNAKNSLYLQMNSLRAEDTAVYYCVRPLLRDSYFYFDVWGQGTMVTVSS
VL: EIVMTQSPATLSVSPGERATLSCRASSSVSSSYLHWYQQKPGQAPRLLIFRTSNLASGIPARFSGSGSGTEYTLTISSLQSEDAAVYYCQQYSGYPLTFGQGTKLEIK
notes: Only variable regions are tied to 13C4; It was detected with anti-human Fc
